Biological target: T1, LmrR (Lactococcus lactis) (UniProt A2RI36)
T1 sequence: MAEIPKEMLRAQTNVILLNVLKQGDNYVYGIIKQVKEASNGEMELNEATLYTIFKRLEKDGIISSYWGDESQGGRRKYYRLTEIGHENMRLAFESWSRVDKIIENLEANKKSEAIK
Assay: NMR titration
Conditions: apo; apparent Kd per base pair; DNA is a fragment pool; 10 mM NaPi pH 6.8, 100 mM NaCl, 25 C (ITC; same buffer for NMR); 5% DMSO in riboflavin titrations

## sonicated E. coli genomic DNA
  Kd: 37 µM

Source: paper PMC5428041, “Dynamic equilibrium on DNA defines transcriptional regulation of a multidrug binding transcriptional repressor, LmrR” (Scientific Reports, 2017)
